One block for each molecule: values may come before it.
Key:
RAG1 central domain = molecular target: T1, RAG1 central domain (Mus musculus, UniProt P15919); experiment: biolayer interferometry (biotinylated central domain on SSA sensors); also circular dichroism, and inhibition of purified cRAG binding, cleavage and hairpin formation
T1 construct: central domain (amino acids 528–760)
T1 sequence (P15919 528-760): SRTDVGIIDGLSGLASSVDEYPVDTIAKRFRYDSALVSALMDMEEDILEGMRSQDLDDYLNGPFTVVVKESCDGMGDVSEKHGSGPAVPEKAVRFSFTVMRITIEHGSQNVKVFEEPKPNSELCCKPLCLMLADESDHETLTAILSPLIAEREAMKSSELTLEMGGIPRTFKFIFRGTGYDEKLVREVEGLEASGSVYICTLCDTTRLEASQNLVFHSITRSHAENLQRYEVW

[1] = molecular target: T2, RAG1 central domain mutant CD-DD (Mus musculus, UniProt P15919, D600A/D708A); experiment: biolayer interferometry (biotinylated CD-DD on SSA sensors); assay type: binding
T2 construct: central domain (amino acids 528–760) with point mutations D600A/D708A
T2 sequence (P15919 528-760 D600A/D708A): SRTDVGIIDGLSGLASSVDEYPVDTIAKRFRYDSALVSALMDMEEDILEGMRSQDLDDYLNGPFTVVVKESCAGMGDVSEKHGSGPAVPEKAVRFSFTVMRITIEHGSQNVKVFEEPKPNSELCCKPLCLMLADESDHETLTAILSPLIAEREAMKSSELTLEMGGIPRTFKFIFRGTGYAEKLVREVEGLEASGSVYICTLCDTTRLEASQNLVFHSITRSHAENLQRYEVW

[2] = molecular target: T3, MBP-core RAG1 (cRAG1);MBP-core RAG2 (cRAG2) (;, UniProt P15919;P21784 384-1040;1-383, |); experiment: EMSA; 5 mM Ca2+, Raltegravir 0.1-0.5 mM (no significant effect); 22.5 mM MOPS-KOH pH 7.0, 20% DMSO, 2.2 mM DTT, 50 mM K-glutamate, 2% glycerol, 100 ng/ml BSA, 5 mM CaCl2, 100 ng RAG, 2 h 25 C, then 0.01% glutaraldehyde fixation 37 C 10 min; 6% native PAGE; conditions: protein: recombinant;recombinant; tags: N-terminal MBP;N-terminal MBP; chain copies: 2;2; label: 5'-32P on AKN46; blunt ends, internal 6-nt CCCCCC/CCCCCC bubble flanked by 15 bp each side
T3 sequence 1: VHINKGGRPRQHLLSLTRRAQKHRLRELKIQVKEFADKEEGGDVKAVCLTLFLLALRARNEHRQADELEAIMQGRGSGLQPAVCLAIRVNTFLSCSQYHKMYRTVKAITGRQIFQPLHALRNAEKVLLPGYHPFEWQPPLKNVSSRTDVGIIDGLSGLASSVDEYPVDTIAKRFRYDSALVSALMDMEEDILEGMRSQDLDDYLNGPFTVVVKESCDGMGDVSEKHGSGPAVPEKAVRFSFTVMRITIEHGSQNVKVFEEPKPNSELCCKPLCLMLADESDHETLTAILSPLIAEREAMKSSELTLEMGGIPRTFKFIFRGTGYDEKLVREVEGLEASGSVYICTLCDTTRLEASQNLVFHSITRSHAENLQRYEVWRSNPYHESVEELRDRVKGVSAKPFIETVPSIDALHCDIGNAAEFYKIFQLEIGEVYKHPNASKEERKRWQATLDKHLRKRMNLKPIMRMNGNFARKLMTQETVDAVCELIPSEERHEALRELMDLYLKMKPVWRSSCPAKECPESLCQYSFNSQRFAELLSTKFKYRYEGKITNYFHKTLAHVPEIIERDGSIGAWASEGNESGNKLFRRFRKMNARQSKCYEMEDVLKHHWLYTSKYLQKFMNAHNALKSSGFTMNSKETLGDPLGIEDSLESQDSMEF
T3 sequence 2: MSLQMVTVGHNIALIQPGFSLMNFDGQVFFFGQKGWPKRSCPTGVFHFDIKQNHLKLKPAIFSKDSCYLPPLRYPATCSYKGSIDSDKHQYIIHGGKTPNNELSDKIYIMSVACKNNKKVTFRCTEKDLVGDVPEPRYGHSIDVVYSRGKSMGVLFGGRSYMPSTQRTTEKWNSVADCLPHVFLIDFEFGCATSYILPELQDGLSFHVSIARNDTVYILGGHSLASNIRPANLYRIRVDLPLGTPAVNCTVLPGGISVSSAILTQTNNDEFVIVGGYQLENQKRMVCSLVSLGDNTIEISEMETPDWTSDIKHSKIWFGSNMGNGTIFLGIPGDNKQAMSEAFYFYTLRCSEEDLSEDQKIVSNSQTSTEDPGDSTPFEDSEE

[3] = molecular target: T3, MBP-core RAG1 (cRAG1);MBP-core RAG2 …; experiment: EMSA; 5 mM Ca2+, no inhibitor; 22.5 mM MOPS-KOH pH 7.0, 20% DMSO, 2.2 mM DTT, 50 mM K-glutamate, 2% glycerol, 100 ng/ml BSA, 5 mM CaCl2, 100 ng RAG, 2 h 25 C, then 0.01% glutaraldehyde fixation 37 C 10 min; 6% native PAGE; conditions: protein: recombinant;recombinant; tags: N-terminal MBP;N-terminal MBP; chain copies: 2;2; label: 5'-32P on AKN1; 1-nt 5' overhang at each end (49 bp)
MBP-core RAG1 (cRAG1) = molecular target: T4, MBP-core RAG1 (cRAG1) (UniProt P15919 384-1040); experiment: EMSA; 5 mM Ca2+; lower band assigned to RAG1 alone; 22.5 mM MOPS-KOH pH 7.0, 20% DMSO, 2.2 mM DTT, 50 mM K-glutamate, 2% glycerol, 100 ng/ml BSA, 5 mM CaCl2, 100 ng RAG, 2 h 25 C, then 0.01% glutaraldehyde fixation 37 C 10 min; 6% native PAGE; conditions: protein: recombinant; tags: N-terminal MBP; chain copies: 2; label: 5'-32P on AKN1; 1-nt 5' overhang at each end (49 bp)
T4 sequence: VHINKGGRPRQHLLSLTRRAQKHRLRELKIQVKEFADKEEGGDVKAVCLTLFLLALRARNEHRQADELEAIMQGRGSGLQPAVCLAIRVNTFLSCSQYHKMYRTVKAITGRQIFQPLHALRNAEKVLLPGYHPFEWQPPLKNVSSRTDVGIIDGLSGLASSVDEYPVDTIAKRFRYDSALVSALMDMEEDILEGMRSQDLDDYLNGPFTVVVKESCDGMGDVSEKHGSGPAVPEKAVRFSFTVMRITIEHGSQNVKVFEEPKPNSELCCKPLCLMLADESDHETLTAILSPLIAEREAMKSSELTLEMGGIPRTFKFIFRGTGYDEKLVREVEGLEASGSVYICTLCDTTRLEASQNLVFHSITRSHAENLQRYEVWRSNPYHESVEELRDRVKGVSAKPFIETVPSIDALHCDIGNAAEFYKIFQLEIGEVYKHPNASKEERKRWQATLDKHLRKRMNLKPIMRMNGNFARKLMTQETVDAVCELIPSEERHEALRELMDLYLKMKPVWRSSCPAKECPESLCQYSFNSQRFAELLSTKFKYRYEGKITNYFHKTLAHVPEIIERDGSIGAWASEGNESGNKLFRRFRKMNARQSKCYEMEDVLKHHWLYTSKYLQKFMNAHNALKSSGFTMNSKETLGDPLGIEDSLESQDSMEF

- Kd (RAG1 central domain): 32.5 ± 2.9 µM
- Kd [1]: 43.7 ± 3 µM
Molecule: COc1cc2c(cc1Cc1cccc(Cl)c1F)c(=O)c(C(=O)O)cn2[C@H](CO)C(C)C [EVG, Elvitegravir]

B1: (C/C)6 bubble heteroduplex (AKN46/AKN20) (mixed)
DNA 1: GACCTGAGGGCGAGCCCCCCCCGAGTAACTTAACAG
DNA 2: CTGTTAAGTTACTCGCCCCCCGCTCGCCCTCAGGTC
- binding result [2]: binds

B2: 12RSS (AKN1/AKN2) (dsDNA)
DNA 1: GATCAGCTGATAGCTACCACAGTGCTACAGACTGGAACAAAAACCCTGCT
DNA 2: TAGCAGGGTTTTTGTTCCAGTCTGTAGCACTGTGGTAGCTATCAGCTGAT
- binding result [3]: binds
- binding result (MBP-core RAG1 (cRAG1)): binds

From paper PMC5520896, “HIV integrase inhibitor, Elvitegravir, impairs RAG functions and inhibits V(D)J recombination” (Cell Death & Disease, 2017)
